Results reported in publication PMC4979064, “Crystal structure of the plant receptor-like kinase TDR in complex with the TDIF peptide” (Nature Communications, 2016).
Square brackets hold non-standard residues; d marks the D form. Ends that are not written are not given here. Hyp = O=C(O)[C@@H]1C[C@@H](O)CN1; Ahx = NCCCCCC(=O)O

Assays:
Settings in all cases: both partners purified
[1] = biological target: T1, lysine methylated C259A/C540S TDR mutant, extracellular domain (residues 31–631) (Arabidopsis thaliana, UniProt Q9FII5 31-631, C259A | C540S, lysine residues methylated; digested with Endo H (deglycosylated)); assay: crystal structure; TDR and TDIF mixed at a molar ratio of 1:1.5, vapour diffusion at 20 °C, 4 M sodium nitrate, 0.1 M sodium acetate pH 4.8, 200 mM ammonium sulfate; 3.0 Å, molecular replacement
T1 construct: TDR/PXY, Arabidopsis thaliana, extracellular LRR domain, residues 31-631, with C259A/C540S; also called lysine methylated C259A/C540S mutant; methylated TDR protein; not shown: 10xHis (after an HRV3C protease site), C-terminal, cleaved
T1 sequence (looked up): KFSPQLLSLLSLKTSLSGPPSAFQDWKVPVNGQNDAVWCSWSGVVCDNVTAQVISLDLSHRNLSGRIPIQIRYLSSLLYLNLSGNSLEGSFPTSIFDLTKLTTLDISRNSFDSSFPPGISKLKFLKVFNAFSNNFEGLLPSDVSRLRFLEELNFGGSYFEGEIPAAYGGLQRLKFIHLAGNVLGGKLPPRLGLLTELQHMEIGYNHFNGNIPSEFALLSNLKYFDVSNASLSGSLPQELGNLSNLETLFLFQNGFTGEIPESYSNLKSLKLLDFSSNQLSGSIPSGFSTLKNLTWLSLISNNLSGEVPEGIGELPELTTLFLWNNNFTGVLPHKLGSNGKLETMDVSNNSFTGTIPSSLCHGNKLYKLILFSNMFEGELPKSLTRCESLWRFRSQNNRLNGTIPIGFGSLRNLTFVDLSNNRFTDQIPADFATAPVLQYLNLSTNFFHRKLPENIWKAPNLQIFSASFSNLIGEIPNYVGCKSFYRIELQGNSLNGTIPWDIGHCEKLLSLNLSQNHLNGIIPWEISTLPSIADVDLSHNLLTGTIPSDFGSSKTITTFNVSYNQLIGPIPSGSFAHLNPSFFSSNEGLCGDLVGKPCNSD

[2] = biological target: T2, extracellular domain (residues 31–631) of TDR from A. thaliana, wild type (Arabidopsis thaliana, UniProt Q9FII5 31-631); assay: pull-down; biotinylated TDIF (2 ug) held on Dynabeads M-280 Streptavidin; purified TDR protein added with 0.1 mg/ml BSA, 4 °C, 2 h; wash buffer 20 mM Tris-HCl pH 7.5, 150 mM NaCl; bound protein eluted in SDS sample buffer, SDS-PAGE
T2 construct: TDR/PXY (TDIF receptor/phloem intercalated with xylem), LRR receptor-like kinase, Arabidopsis thaliana, extracellular LRR domain, residues 31-631; The purification told in the methods cleaves the His tag with HRV3C protease; also called wild-type TDR; TDIF receptor; source: Sf9 insect cells (baculovirus), secreted into the culture supernatant, purified
T2 sequence (looked up): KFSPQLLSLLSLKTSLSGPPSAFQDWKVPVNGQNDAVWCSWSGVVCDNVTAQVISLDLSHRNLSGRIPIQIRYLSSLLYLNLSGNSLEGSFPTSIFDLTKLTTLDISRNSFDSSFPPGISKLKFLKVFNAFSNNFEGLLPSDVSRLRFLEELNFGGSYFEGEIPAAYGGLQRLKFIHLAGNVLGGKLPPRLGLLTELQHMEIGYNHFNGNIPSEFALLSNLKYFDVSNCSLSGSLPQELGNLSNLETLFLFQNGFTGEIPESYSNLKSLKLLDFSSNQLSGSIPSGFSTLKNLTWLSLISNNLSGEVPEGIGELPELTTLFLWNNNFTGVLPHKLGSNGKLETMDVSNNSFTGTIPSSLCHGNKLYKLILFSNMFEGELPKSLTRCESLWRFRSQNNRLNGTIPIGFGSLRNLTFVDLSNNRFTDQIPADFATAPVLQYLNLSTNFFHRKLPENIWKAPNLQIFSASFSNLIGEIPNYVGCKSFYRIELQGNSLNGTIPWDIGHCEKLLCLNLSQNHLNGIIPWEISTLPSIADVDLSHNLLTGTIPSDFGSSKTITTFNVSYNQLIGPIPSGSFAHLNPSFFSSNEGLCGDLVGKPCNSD

[3] = biological target: T1, lysine methylated C259A/C540S TDR …; assay: as above
[4] = biological target: T3, TDR S162A mutant (in the C259A/C540S extracellular domain, residues 31–631) (Arabidopsis thaliana, UniProt Q9FII5 31-631, C259A | C540S | S162A); assay: as above
T3 construct: TDR/PXY, Arabidopsis thaliana, extracellular LRR domain, residues 31-631, C259A/C540S background with S162A; source: Sf9 insect cells (baculovirus), purified (Ni Sepharose excel)
T3 sequence (looked up): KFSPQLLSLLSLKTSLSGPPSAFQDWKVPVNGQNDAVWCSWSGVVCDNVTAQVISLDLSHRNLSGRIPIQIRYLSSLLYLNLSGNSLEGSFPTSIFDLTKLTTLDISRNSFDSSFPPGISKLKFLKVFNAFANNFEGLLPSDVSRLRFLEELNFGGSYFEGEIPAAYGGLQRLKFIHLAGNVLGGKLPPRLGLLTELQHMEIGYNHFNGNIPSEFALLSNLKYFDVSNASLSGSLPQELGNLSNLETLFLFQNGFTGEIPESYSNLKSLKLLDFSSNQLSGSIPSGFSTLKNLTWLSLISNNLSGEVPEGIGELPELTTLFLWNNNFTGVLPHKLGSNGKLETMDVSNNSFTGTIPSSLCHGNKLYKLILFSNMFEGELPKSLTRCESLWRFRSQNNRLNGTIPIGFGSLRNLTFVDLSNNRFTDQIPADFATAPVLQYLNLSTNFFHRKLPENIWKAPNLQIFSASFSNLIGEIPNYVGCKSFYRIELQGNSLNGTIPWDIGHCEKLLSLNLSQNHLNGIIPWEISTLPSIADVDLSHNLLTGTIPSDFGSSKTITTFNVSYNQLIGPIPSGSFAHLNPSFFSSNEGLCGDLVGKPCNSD

[5] = biological target: T4, TDR R423A mutant (in the C259A/C540S extracellular domain, residues 31–631) (Arabidopsis thaliana, UniProt Q9FII5 31-631, C259A | C540S | R423A); assay: as above
T4 construct: TDR/PXY, Arabidopsis thaliana, extracellular LRR domain, residues 31-631, C259A/C540S background with R423A; source: Sf9 insect cells (baculovirus), purified (Ni Sepharose excel)
T4 sequence (looked up): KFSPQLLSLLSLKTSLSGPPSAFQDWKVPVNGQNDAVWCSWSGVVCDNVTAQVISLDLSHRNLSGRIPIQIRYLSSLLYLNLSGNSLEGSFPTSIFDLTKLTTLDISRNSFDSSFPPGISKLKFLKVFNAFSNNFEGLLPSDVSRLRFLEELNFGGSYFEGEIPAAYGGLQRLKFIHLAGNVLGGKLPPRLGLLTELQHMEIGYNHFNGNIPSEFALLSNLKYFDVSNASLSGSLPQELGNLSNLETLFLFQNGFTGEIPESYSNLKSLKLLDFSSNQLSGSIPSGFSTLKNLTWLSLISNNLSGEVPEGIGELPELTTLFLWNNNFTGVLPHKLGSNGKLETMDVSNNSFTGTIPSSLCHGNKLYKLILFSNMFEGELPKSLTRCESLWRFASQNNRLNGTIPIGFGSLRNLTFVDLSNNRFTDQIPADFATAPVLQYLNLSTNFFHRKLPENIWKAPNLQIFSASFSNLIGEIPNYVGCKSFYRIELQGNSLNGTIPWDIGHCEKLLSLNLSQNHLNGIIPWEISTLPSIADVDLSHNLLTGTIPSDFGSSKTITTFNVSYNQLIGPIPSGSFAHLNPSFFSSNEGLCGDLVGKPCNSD

[6] = biological target: T5, C259A/C540S TDR mutant, extracellular domain (residues 31–631), as in the pull-down of Fig. 2e (Arabidopsis thaliana, UniProt Q9FII5 31-631, C259A | C540S); assay: as above
T5 construct: TDR/PXY, Arabidopsis thaliana, extracellular LRR domain, residues 31-631, with C259A/C540S; it may be the same preparation as m2; also called C259A/C540S mutant; TDR C259A/C540S mutant; source: Sf9 insect cells (baculovirus), purified
T5 sequence (looked up): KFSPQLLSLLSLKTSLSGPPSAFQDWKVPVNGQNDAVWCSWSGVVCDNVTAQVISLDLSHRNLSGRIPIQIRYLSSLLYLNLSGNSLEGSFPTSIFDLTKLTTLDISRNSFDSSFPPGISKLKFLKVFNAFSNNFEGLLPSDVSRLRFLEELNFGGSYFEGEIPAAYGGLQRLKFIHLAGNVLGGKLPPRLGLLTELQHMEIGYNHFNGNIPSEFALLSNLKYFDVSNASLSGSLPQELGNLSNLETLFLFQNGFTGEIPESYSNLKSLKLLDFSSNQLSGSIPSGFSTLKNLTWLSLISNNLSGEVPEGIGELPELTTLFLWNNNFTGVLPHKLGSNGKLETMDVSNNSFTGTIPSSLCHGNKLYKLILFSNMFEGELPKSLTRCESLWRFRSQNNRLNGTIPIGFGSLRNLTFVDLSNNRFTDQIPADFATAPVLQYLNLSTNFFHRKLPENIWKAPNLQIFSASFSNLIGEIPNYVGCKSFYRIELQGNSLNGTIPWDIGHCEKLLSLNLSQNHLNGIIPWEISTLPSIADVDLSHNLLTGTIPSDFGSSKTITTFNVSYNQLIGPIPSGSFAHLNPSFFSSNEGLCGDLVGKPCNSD

[7] = biological target: T6, TDR F161A mutant (in the C259A/C540S extracellular domain, residues 31–631) (Arabidopsis thaliana, UniProt Q9FII5 31-631, C259A | C540S | F161A); assay: as above
T6 construct: TDR/PXY, Arabidopsis thaliana, extracellular LRR domain, residues 31-631, C259A/C540S background with F161A; source: Sf9 insect cells (baculovirus), purified (Ni Sepharose excel)
T6 sequence (looked up): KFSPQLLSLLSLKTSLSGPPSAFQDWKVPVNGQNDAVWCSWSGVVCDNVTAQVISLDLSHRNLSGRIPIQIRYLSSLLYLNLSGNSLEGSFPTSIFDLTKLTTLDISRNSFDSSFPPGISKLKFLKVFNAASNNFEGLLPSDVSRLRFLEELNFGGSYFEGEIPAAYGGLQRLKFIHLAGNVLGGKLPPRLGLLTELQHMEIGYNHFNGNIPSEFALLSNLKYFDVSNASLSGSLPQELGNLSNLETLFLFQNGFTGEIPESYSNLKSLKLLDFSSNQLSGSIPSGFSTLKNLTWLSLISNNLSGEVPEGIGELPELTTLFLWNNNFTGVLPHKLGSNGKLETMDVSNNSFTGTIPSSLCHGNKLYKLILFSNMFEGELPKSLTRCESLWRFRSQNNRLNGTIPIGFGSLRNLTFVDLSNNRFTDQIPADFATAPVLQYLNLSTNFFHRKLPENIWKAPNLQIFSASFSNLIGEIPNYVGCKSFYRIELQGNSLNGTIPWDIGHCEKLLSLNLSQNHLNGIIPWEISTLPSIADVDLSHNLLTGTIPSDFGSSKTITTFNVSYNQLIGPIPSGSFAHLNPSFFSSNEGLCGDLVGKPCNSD

[8] = biological target: T7, TDR R421A mutant (in the C259A/C540S extracellular domain, residues 31–631) (Arabidopsis thaliana, UniProt Q9FII5 31-631, C259A | C540S | R421A); assay: as above
T7 construct: TDR/PXY, Arabidopsis thaliana, extracellular LRR domain, residues 31-631, C259A/C540S background with R421A; source: Sf9 insect cells (baculovirus), purified (Ni Sepharose excel)
T7 sequence (looked up): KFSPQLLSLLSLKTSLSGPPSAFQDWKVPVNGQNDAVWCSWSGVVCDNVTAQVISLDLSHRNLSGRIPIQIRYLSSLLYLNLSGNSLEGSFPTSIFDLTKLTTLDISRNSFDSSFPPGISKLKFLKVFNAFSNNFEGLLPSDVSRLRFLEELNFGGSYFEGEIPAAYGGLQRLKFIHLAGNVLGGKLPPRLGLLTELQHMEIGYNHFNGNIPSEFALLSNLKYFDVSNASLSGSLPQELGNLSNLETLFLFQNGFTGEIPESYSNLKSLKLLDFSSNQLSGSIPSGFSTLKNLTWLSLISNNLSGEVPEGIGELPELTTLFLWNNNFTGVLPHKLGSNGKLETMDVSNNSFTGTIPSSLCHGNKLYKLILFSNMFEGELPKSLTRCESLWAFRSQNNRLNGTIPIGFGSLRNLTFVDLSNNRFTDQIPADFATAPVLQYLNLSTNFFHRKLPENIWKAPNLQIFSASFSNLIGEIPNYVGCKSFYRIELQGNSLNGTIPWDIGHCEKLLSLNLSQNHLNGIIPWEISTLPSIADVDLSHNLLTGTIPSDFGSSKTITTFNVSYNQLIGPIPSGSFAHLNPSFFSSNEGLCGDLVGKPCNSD

Measured: binding result

B1: Tracheary element differentiation factor (TDIF) peptide, HEV(Hyp)SG(Hyp)NPISN (peptide)
peptide: HEV[Hyp]SG[Hyp]NPISN
notes: TDIF, 12-residue CLE family peptide with two hydroxyprolines (written P at 4 and 7), encoded by the CLE41 and CLE44 genes in Arabidopsis; the processed peptide from the C-terminus of the precursor; The same peptide is also encoded by CLE44; also called synthesized TDIF peptide; source: synthetic peptide (Eurofins Genomics)
binds: [1]

B2: biotinylated TDIF peptide, HEV(Hyp)SG(Hyp)NPISN-GSGS-(Ahx)-Biotin (peptide)
peptide: HEV[Hyp]SG[Hyp]NPISNGSGS-{Ahx-biotin}
notes: TDIF, 12-residue CLE family peptide with two hydroxyprolines (written P at 4 and 7), encoded by the CLE41 and CLE44 genes in Arabidopsis; linker before (Ahx)-Biotin; also called biotinylated TDIF peptides; source: synthetic peptide (Eurofins Genomics); not shown: Biotin, C-terminal, kept
binds: [2] | [3] | [4] | [5] | [6] | [7] | [8]
